Here are results for three molecules from patent US11591604B2, “Gene expression in Bacteroides” (Massachusetts Institute of Technology, priority 2015, dated 2023).

For data set [1], the system named is Bacteroides spp. Nature of the data set: pNBU1 integration and gene expression across Bacteroides and Parabacteroides species. In kind it is cell-based. From the text: FIG. 11 is a graph showing that pNBU1 may be used to target, for example, B. thetaiotaomicron, B. fragilis, B. ovatus, B. vulgatus, B. caccae, B. eggerthii, B. vulgatus and Parabacteroides distasonis.
An integration vector, designated pNBU1, was created to introduce recombinant DNA into a wide range of Bacteroides species (FIG. 10). IntN1 integrase catalyzes site-specific genomic integration of the plasmid into recipient Bacteroides strains.

The subject of data set [2] is B. thetaiotaomicron. Nature of the data set: Cell growth (OD600) of P3763-rpiL*C51-Int12 strain versus rhamnose concentration. Conditions: even when maximally expressed. In kind it is cell-based. From the text:
FIGS. 8A-8B. Integrase characterization. (FIG. 8A) Representative PCR products are shown for wild-type (unflipped) memory array at each integrase recognition sequence. “−” indicates no integrase, “+” indicates the integrase is present. PAM4-rpiL* was used to control expression of each integrase. (FIG. 8B) Cell growth of the P3763-rpiL*C51-Int12 strain is shown as optical density (OD) at 600 nm as a function of rhamnose concentration. Inducer concentrations were three-fold serial dilutions starting at 10 mM rhamnose. The leftmost data point represents the […] in the absence of inducer. Cells were grown 8 hours at 37° C. before measuring the OD600 value for each culture. Error bars represent the standard deviation of three biological replicates made on three different days (n=3).
To create an inducible memory switch, Int12 was cloned under the control of the rhamnose-inducible promoter with the rpiL*RBS variant C51 (FIG. 3E) (see also FIG. 1C, Table 1).

Data set [3] deals with integrase recognition sequences in the memory array. Nature of the data set: Integrase-mediated DNA inversion in chromosomal memory array detected by PCR. In kind it is cell-based, B. thetaiotaomicron. Conditions: integrase expressed from PAM4-rpiL*, PCR detection.
Text: (FIG. 3C) Integrase-mediated DNA inversion at each integrase target sequence in the memory array cassette was detected by polymerase chain reaction (PCR). Primer pairs (arrows) anneals to the interface of the integrase recognition sites and to the spacer region between recognition sites. PCR amplification occurs only after an inversion event (solid lines below the primer arrows indicate expected amplicons). (FIG. 3D) Representative PCR products are shown after recombination. − indicates no integrase, + indicates the integrase is present. PAM4-rpiL* was used to control expression of each integrase.
Data set [4] deals with NanoLuc. Nature of the data set: Luciferase activity in fecal pellets of mice colonized with arabinogalactan-inducible P0268 strain. The format is in vivo, Swiss Webster mice. As for the experimental part:
FIGS. 5A-5D. In vivo function of genetic parts within B. thetaiotaomicron colonizing the mouse gut. (FIG. 5A) Experimental timeline. Specific pathogen free (SPF) Swiss Webster mice were treated for 10 days with ciprofloxacin and metronidazole and gavaged with B. thetaiotaomicron 2 days after cessation of treatment. […] Mice were provided drinking water supplemented with 5% arabinogalactan (FIG. 5B: solid line), or 25 mM IPTG (FIG. 5C: solid line) after stool collection on Day 2 (grey box), or were maintained on normal drinking water throughout the entire experiment (dashed lines). Inducer water was removed on Day 4 after stool collection. Grey boxes indicate the period of time that mice were exposed to inducer-supplemented drinking water. Luminescence values were normalized to cell density as determined by qPCR using NanoLuc-specific primers. (FIG. 5D) SPF mice were colonized with B. thetaiotaomicron containing the rhamnose-inducible integrase construct P3763-rpiL*C51-Int12. […] Absolute quantities of flipped and unflipped memory array in fecal DNA were determined by qPCR using standard curves (Experimental Procedures). Recombination frequency is expressed as the ratio of cells containing a flipped memory array (Flipped) divided by the sum total of cells containing a flipped or unflipped array (Total). […]

Data set [5] has as its system NanoLuc. Nature of the data set: Response curves of inducible promoters driving NanoLuc. In kind it is cell-based, B. thetaiotaomicron. As to conditions: arabinogalactan induction. The method, then: FIGS. 2A-2E. Design and characterization of genetic sensors. (FIGS. 2A-2D) Response curves for NanoLuc under the regulated control of the rhamnose—(Rha) (FIG. 2A), chondroitin sulfate—(ChS) (FIG. 2B), arabinogalactan—(AG) (FIG. 2C), or IPTG—(FIG. 2D) inducible promoters. LacO1 operator sites were inserted in various regions (O1, O2, O3) of the PcfxA promoter (see also FIGS. 7A-7B). Inducer concentrations were applied as follows: three-fold serial dilutions starting at 10 mM Rha (FIG. 2A); three-fold serial dilutions starting at 0.4% for ChS (FIG. 2B) and AG (FIG. 2C); and four-fold serial dilutions starting at 500 μM for IPTG (FIG. 2D). The leftmost data point in each plot represents the background luminescence in the absence of inducer. Response curves were fit to a Hill function (solid lines). (FIG. 2E) Orthogonality matrix of sugar-inducible genetic systems incubated with 10 mM rhamnose (Rha), 0.2% chondroitin sulfate (ChS), 0.2% arabinogalactan (AG), or 100 mM IPTG compared to no inducer. Error bars represent the standard deviation of three biological replicates made on different days.
FIGS. 7A-7B. Synthetic IPTG-inducible promoters. (FIG. 7A) Synthetic IPTG-inducible promoters were constructed by placing LacO1 operator sites (red) upstream of the −33 element (O1), between the −33 and −7 elements (O2) and/or directly downstream of the transcription start site (O3) of the strong PcfxA promoter. Predicted −33, −7 and +1 sites are shown in bold. These promoters are regulated by the E. coli LacIQ repressor expressed from PBT1311. FIG. 7A depicts SEQ ID NOs: 217 to 220 from top to bottom, respectively. (FIG. 7B) Response curves for the synthetic IPTG-inducible systems. Cells were incubated with no inducer or four-fold serial dilutions of IPTG starting at 500 μM. Data sets for PLacO13 and PLacO23 were fit to a Hill function (solid line). Error bars represent the standard deviation of three biological replicates made on three different days (n=3).
To create inducible systems for use in B. thetaiotaomicron, parts from a large repertoire of systems that govern carbohydrate utilization were used, which included cytoplasmic transcription factors, extracytoplasmic function sigma/anti-sigma pairs, and hybrid two-component systems (HTCS), among others (64). In B. thetaiotaomicron, rhamnose metabolism is mediated by the AraC/XylS-family transcriptional activator, RhaR, which activates transcription at the PBT3763 promoter (Patel E H, et al. Res. Microbiol. 159:678-84, 2008). To assay the functionality of PBT3763 as an inducible system, 250 bp of the promoter-RBS region was cloned upstream of the start codon of BT3763 into the pNBU2 expression vector to drive expression of NanoLuc.
Two-component systems are signal-transduction mechanisms widespread in bacteria for sensing external stimuli. […] Putative HTCSs, BT3334 and BT0267, were identified in transcriptomic studies to control expression of the chondroitin sulfate (ChS)-inducible PBT3324 promoter and arabinogalactan (AG)-inducible PBT0268 promoter, respectively (64, 83). The promoter regions upstream of the BT3324 and BT0268 genes were used as the basis for two polysaccharide sensors. Chondroitin sulfate induction of PBT3324 and arabinogalactan induction PBT0268 led to a 60-fold and 29-fold regulation of output gene expression, respectively (FIGS. 2B and 2C).
Next, an IPTG-inducible system was developed. Pairs of LacO1 operator sites were inserted in the strong PcfxA promoter in three locations: upstream of the −33 element (O1), between the −33 and −7 elements (O2) or just downstream of the transcription start site (O3) (FIGS. 7A-7B). The LacI^Q repressor was expressed from the strong BT1311 promoter to achieve tight control of NanoLuc expression. Compared to the unmodified PcfxA promoter, the addition of synthetic operator sites diminished the maximum expression of NanoLuc (FIGS. 7A-7B). […]

Consider “pNBU1: integration vector with IntN1 integrase, SEQ ID NO: 209”, for which, in data set [1], the “host range and efficiency relative to the pNBU2 plasmid” value is “greater host range and efficiency”.

B1: Int12: Serine integrase, SEQ ID NO: 167 (protein)
chain: MKVAIYTRVSSAEQANEGYSIHEQKKKLISYCEIHDWNEYKVFTDAGISGGSMKRPALQKLMKHLSSFDLVLVYKLDRLTRNVRDLLDMLEEFEQYNVSFKSATEVFDTTSAIGKLFITMVGAMAEWERETIRERSLFGSRAAVREGNYIREAPFCYDNIEGKLHPNEYAKVIDLIVSMFKKGISANEIARRLNSSKVHVPNKKSWNRNSLIRLMRSPVLRGHTKYGDMLIENTHEPVLSEHDYNAINNAISSKTHKSKVKHHAIFRGALVCPQCNRRLHLYAGTVKDRKGYKYDVRRYKCETCSKNKDVKNVSFNESEVENKFVNLLKSYELNKFHIRKVEPVKKIEYDIDKINKQKINYTRSWSLGYIEDDEYFELMEEINATKKMIEEQTTENKQSVSKEQIQSINNFILKGWEELTIKDKEELILSTVDKIEFNFIPKDKKHKTNTLDINNIHFKF
Take B1: in data set [2], the “impact on growth of B. thetaiotaomicron” value was “did not impact growth”. Moreover, the “recombination at the respective recognition sequence in the memory array” value in data set [3] is given as “catalyzed recombination”.

B2: PBT0268: Arabinogalactan inducible promoter + RBS, SEQ ID NO: 146 (nucleic acid)
DNA: TAAAATACACAAGTACGCGTCTTAATGGAAGATGCGTACTTTTCCATATATCAATGATCTATCCCATTTGAATGATTCCTGAACTTATATTGAACGATTTTTAGACCTGTTATAGTTAATAGCGATTATGGTCCAATTTTGGAAGTTTTTGAATGATTAGAGAACTTCTTTCTACTGGATAACTCGCACTTTTGTGACGCATTTGATGCACAACTAATACTTATTTGGTCTAAATAACTTTATAAATCTAATAGT
B2: the “luciferase activity after removal of inducer from drinking water” value in data set [4] (fecal pellets) is “rapidly returned to baseline”. Moreover, the “increase of luciferase activity in fecal pellets” value in data set [4] (within a day of arabinogalactan in drinking water) is listed as “approximately 75 fold”. Besides, the “regulation of output gene expression” value in data set [5] stood at 29 fold.
